Experimental data reported in the supplement of paper PMC9876800.

Tested on: peptide library, one residue held at a place counted from the S/T acceptor
Assay: relative phosphorylation of the sub-library (ratio to the mean residue at this position); higher = residue favoured
Conditions: human
Summary of the method: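 Purified recombinant kinases (human or orthologue constructs) were incubated in 384-well plates with biotinylated degenerate peptide sub-libraries, each fixing one residue at one position around a central Ser/Thr. Peptides were at 50 μM, with 50 μM ATP spiked with γ-32P-ATP, for 90 min under kinase-specific conditions. Spots on streptavidin membranes were phosphorimaged and quantified by densitometry. Relative sub-library phosphorylation is a ratio to the mean residue at that position.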

SRPK2, construct: Full length (from UniProt P78362)
relative phosphorylation
Conditions	at +1	at +2	at +3	at +4	at -1	at -2	at -3	at -4	at -5
A fixed	0.712	1.14	0.669	0.878	0.911	1.6	0.473	0.89	1.01
D fixed	0.338	1.38	0.556	0.992	0.577	2.3	0.364	0.723	0.669
E fixed	0.495	1.2	0.406	0.747	0.626	1.46	0.305	0.685	0.713
F fixed	0.35	1.12	0.427	0.715	0.468	0.64	0.265	0.697	0.971
G fixed	0.597	0.77	0.921	1.16	0.901	1.11	0.363	0.818	1.12
H fixed	0.663	1.01	0.699	1.11	1.6	1.56	0.44	1.11	1.15
I fixed	0.667	0.647	0.369	0.783	0.361	0.298	0.222	0.549	0.593
K fixed	1.6	2.02	1.29	1.51	2.2	0.995	0.918	1.71	1.75
L fixed	0.852	0.772	0.407	0.875	0.671	0.361	0.232	0.644	0.648
M fixed	0.839	0.547	0.383	0.794	0.693	0.538	0.288	0.719	0.754
N fixed	1.11	0.934	0.666	1.02	1.09	1.22	0.354	0.988	0.999
P fixed	4.58	1.22	1.72	1.06	1.44	0.822	0.347	1.84	0.758
Q fixed	1.08	0.939	0.687	1.07	1.66	0.714	0.528	0.956	0.834
R fixed	1.23	1.13	6.39	1.59	1.92	1.63	11	2.28	2.36
V fixed	1.07	0.976	0.442	0.815	0.726	0.449	0.246	0.696	0.769
W fixed	0.407	0.581	0.502	1.03	0.522	0.614	0.351	0.898	1.07
Y fixed	0.412	0.618	0.474	0.863	0.629	0.695	0.319	0.794	0.829
pThr fixed	0.513	0.839	0.67	0.956	0.411	0.555	0.363	0.65	0.55
pTyr fixed	0.696	0.733	0.646	0.951	0.763	1.09	0.45	1.25	0.809

RAF1, construct: aa306-648 (from UniProt P04049)
relative phosphorylation
Conditions	at +1	at +2	at +3	at +4	at -1	at -2	at -3	at -4	at -5
A fixed	0.533	0.747	0.856	0.786	1.02	0.816	0.961	0.949	1.05
D fixed	0.619	0.926	0.751	0.848	1.47	0.702	0.845	1.36	1.19
E fixed	0.992	0.886	0.697	0.864	0.969	0.718	0.898	1.24	1.29
F fixed	1.25	0.618	1.36	1.23	0.587	1.25	0.8	0.698	0.914
G fixed	0.719	1.13	1.05	0.823	1.07	0.675	1.06	1.09	0.997
H fixed	0.672	1.08	1.06	1.13	1.52	1.29	1.08	1.13	1.18
I fixed	1.66	1.03	0.787	0.958	0.647	1.27	0.755	0.65	0.731
K fixed	0.544	1.15	0.73	0.985	1.14	0.9	1.36	1.11	1.35
L fixed	2.37	1	1.19	1.05	0.852	0.939	1.22	0.793	0.848
M fixed	1.78	0.846	0.963	0.966	1.09	1.02	1.07	0.835	0.788
N fixed	0.692	1.32	0.999	1.08	1.29	0.784	0.832	1.27	1.13
P fixed	0.281	1.23	0.912	0.983	0.735	1.1	0.797	0.772	1.03
Q fixed	0.762	1.22	0.892	1.06	0.93	0.846	0.996	0.878	0.86
R fixed	0.667	1.49	0.776	0.944	1.39	1.37	1.83	0.911	1.09
V fixed	0.938	1.12	0.81	0.793	0.59	1.14	0.661	0.616	0.681
W fixed	1.44	0.58	1.61	1.3	0.805	0.932	0.94	1.91	1.02
Y fixed	1.08	0.631	1.56	1.19	0.891	1.26	0.89	0.791	0.855
pThr fixed	1.05	1.62	0.758	0.819	0.77	1.06	1.1	1.24	0.992
pTyr fixed	0.626	0.898	0.911	0.692	1.61	1.72	1.07	0.994	0.98
